From patent US12129308 (Merck KGaA, dated 2024)
Substitutions are numbered along the chain they refer to.

B1: C0101PMP063F01 (VHH)
VHH: EVQLVESGGGLVQPGGSLRLSCSASTGIFRINTMGWHRQAPGKQRDLVATFTSDDNTKYADSVKGRFTISRDNAENTVYLQMNDLKPEDTAVYYCHATTVMYDSNSPDYWGQGTQVTVSS
notes: Profile 2 Nanobody
B2: C0101PMP516G08 (VHH)
VHH: DVQLVESGGGLVQPGGSLRLSCAGSGSIFRINVMAWYRQAPGKQRELVAAITSGGTTNYADSVKGRFTISRDNSKNTVYLQMNSLRPEDTAVYYCYADIGWPYVLDYDFWGQGTLVTVSS
notes: Profile 2 Nanobody; also called C0101516G08
B3: C0101PMP529G11 (VHH)
VHH: B2 VHH with G24A, V33A, A35G, T52I, N58Y
notes: Profile 2 Nanobody
B4: C0101PMP062C02 (VHH)
VHH: EVQLVESGGALVRPGGSLRLSCAASGFAFSAAYMSWVRQAPGRGLEWVSSISDDGSKTYYADSVKGRFTISRDNAKNTVYLQMNNLKPDDTAVYYCNTGYGATTTRPGRYWGQGTQVTVSS
notes: Profile 2 Nanobody; also called C0101062C02
B5: C0101PMP529C12 (VHH)
VHH: DVQLVESGGGLVQPGGSLRLSCVASGSIFSINAMGWYRQAPGKQRELVAAISSGGSTYYADSVKGRFTISRDNSKNTVYLQMNSLRPEDTAVYYCNAAVDASRGLPYELYYYWGQGTLVTVSS
notes: Profile 2 Nanobody; also called C0101529C12
B6: C0101PMP521F02 (VHH)
VHH: DVQLVESGGGLVQPGGSLRLSCVASGLTFSSYAMGWFRQAPGKEREFVAAISWSGGRTYYADSVKGRFTISRDNSKNTVYLQMNSLRPEDTAVYYCTAARGPGSVGPSEEYNYWGQGTLVTVSS
notes: Profile 2 Nanobody
B7: C0101PMP519E04 (VHH)
VHH: DVQLVESGGGLVQPGGSLRLSCVASGPTFSDYAMGWFRQAPGKEREFVAAISWSGGSTYYADSVKGRFTISRDNSKNTVYLQMNSLRPEDTAVYYCTAARGGGYRASGGPLSEYNYWGQGTLVTVSS
notes: Profile 2 Nanobody
B8: C0101PMP520B06 (VHH)
VHH: DVQLVESGGGLVQPGGSLRLSCAASGRTFSSYAMGWFRQAPGKEREFVAAISWGGGSTYYSDSVKGRFTISRDNSKNTVYLQMNSLRPEDTAVYYCTAALGSTGSGSTPVPEYRYWGQGTLVTVSS
notes: Profile 2 Nanobody
B9: C010100683 (bispecific antibody)
chain: EVQLVESGGGLVQPGGSLRLSCAASGFAFSAAYMSWVRQAPGKGLEWVSSISDDGSKTYYADSVKGRFTISRDNSKNTVYLQMNSLRPEDTAVYYCNTGYGATTTRPGRYWGQGTLVTVSSGGGGSGGGGSGGGGSGGGGSGGGGSGGGGSGGGGSEVQLVESGGGLVQPGGSLRLSCAASGSTFIINVVRWYRRAPGKQRELVATISSGGNANYVDSVRGRFTISRDNSKNTVYLQMNSLRPEDTAVYYCNVPTTHYGGVYYGPYWGQGTLVTVSSGGGGSGGGGSGGGGSGGGGSGGGGSGGGGSGGGGSEVQLVESGGGLVQPGGSLRLSCAASGSTFIINVVRWYRRAPGKQRELVATISSGGNANYVDSVRGRFTISRDNSKNTVYLQMNSLRPEDTAVYYCNVPTTHYGGVYYGPYWGQGTLVTVSS
notes: MMP13-Aggrecan bispecific Nanobody construct; also called 62C02SO-114F08SO-114F08SO
B10: 517A01-40E09 clone 80 (bispecific antibody)
chain: EVQLVESGGGLVQPGGSLRLSCAASGRTFSSYAMGWFRQAPGKEREFVAAISWSGGSTYYADSVKGRFTISRDNSKNTVYLQMNSLRPEDTAVYYCTAALAVYGPNRYRYGPVGEYNYWGQGTLVTVSSGGGGSGGGGSGGGGSGGGGSGGGGSGGGGSGGGGSEVQLVESGGGSVQAGGSLRLSCAASGSTFSRYSMNWYRQAPGKQREFVAGISVGRITNYAVSVRGRFTISRDNAEGTGYLQMNSLKPEDTAVYYCNAGGLQGYWGLGTLVTVSS
B11: 516G08-40E09 clone 76 (bispecific antibody)
chain: EVQLVESGGGLVQPGGSLRLSCAGSGSIFRINVMAWYRQAPGKQRELVAAITSGGTTNYADSVKGRFTISRDNSKNTVYLQMNSLRPEDTAVYYCYADIGWPYVLDYDFWGQGTLVTVSSGGGGSGGGGSGGGGSGGGGSGGGGSGGGGSGGGGSEVQLVESGGGSVQAGGSLRLSCAASGSTFSRYSMNWYRQAPGKQREFVAGISVGRITNYAVSVRGRFTISRDNAEGTGYLQMNSLKPEDTAVYYCNAGGLQGYWGLGTLVTVSS
B12: 62C02-40E09 clone 72 (bispecific antibody)
chain: EVQLVESGGALVRPGGSLRLSCAASGFAFSAAYMSWVRQAPGRGLEWVSSISDDGSKTYYADSVKGRFTISRDNAKNTVYLQMNNLKPDDTAVYYCNTGYGATTTRPGRYWGQGTLVTVSSGGGGSGGGGSGGGGSGGGGSGGGGSGGGGSGGGGSEVQLVESGGGSVQAGGSLRLSCAASGSTFSRYSMNWYRQAPGKQREFVAGISVGRITNYAVSVRGRFTISRDNAEGTGYLQMNSLKPEDTAVYYCNAGGLQGYWGLGTLVTVSS
B13: 40E09-517A01 clone 71 (bispecific antibody)
chain: EVQLVESGGGSVQAGGSLRLSCAASGSTFSRYSMNWYRQAPGKQREFVAGISVGRITNYAVSVRGRFTISRDNAEGTGYLQMNSLKPEDTAVYYCNAGGLQGYWGLGTLVTVSSGGGGSGGGGSGGGGSGGGGSGGGGSGGGGSGGGGSEVQLVESGGGLVQPGGSLRLSCAASGRTFSSYAMGWFRQAPGKEREFVAAISWSGGSTYYADSVKGRFTISRDNSKNTVYLQMNSLRPEDTAVYYCTAALAVYGPNRYRYGPVGEYNYWGQGTLVTVSS
B14: 40E09-516G08 clone 70 (bispecific antibody)
chain: EVQLVESGGGSVQAGGSLRLSCAASGSTFSRYSMNWYRQAPGKQREFVAGISVGRITNYAVSVRGRFTISRDNAEGTGYLQMNSLKPEDTAVYYCNAGGLQGYWGLGTLVTVSSGGGGSGGGGSGGGGSGGGGSGGGGSGGGGSGGGGSEVQLVESGGGLVQPGGSLRLSCAGSGSIFRINVMAWYRQAPGKQRELVAAITSGGTTNYADSVKGRFTISRDNSKNTVYLQMNSLRPEDTAVYYCYADIGWPYVLDYDFWGQGTLVTVSS
B15: 40E09-62C02 clone 69 (bispecific antibody)
chain: EVQLVESGGGSVQAGGSLRLSCAASGSTFSRYSMNWYRQAPGKQREFVAGISVGRITNYAVSVRGRFTISRDNAEGTGYLQMNSLKPEDTAVYYCNAGGLQGYWGLGTLVTVSSGGGGSGGGGSGGGGSGGGGSGGGGSGGGGSGGGGSEVQLVESGGALVRPGGSLRLSCAASGFAFSAAYMSWVRQAPGRGLEWVSSISDDGSKTYYADSVKGRFTISRDNAKNTVYLQMNNLKPDDTAVYYCNTGYGATTTRPGRYWGQGTLVTVSS

Target: T1, activated MMP13 (species not stated) (Homo sapiens (Human), UniProt P45452 104-471, Biotinylated in the TIMP-2 competition ELISA (sites not given). Activated form: pro-peptide removed.)
T1 construct: campaign 4 ELISA; Probably human
Assay: TIMP-2 competition ELISA; Nanobody pre-incubated with 1.26 nM activated MMP13-biotin, binding to captured TIMP-2

Row | Binder | IC50
1 | B1 | 177 nM
2 | B2 | 0.5 nM
3 | B3 | 7.9 nM
4 | B4 | 0.9 nM
5 | B5 | 0.4 nM
6 | B6 | 8.5 nM
7 | B7 | 5.5 nM
8 | B8 | 9.3 nM

Target: T2, Aggrecan
T2 construct: also called CAP
Assay: competition ELISA (CAP) on Aggrecan; competitor not stated

Row | Binder | IC50
9 | B9 | 0.23 nM

Target: T3, activated human MMP13 (human, UniProt P45452 104-471)
Assay: cell-based or functional assay

Row | Binder | IC50, human fluorogenic collagen assay | IC50, human fluorogenic peptide assay | IC50, human collagenolytic assay
10 | B1 | 134 nM | 82.4 nM | 
11 | B2 | 3.8 nM | 0.8 nM | 0.9 nM
12 | B3 | 17.9 nM | 10.3 nM | 
13 | B4 | 8.3 nM | 1.4 nM | 1.4 nM
14 | B5 | 4.9 nM | 1.2 nM | 
15 | B6 | 20.7 nM | 7.2 nM | 
16 | B7 | 24.8 nM | 9.5 nM | 
17 | B8 | 27.5 nM | 13.4 nM | 

Target: cynomolgus MMP13 (cynomolgus, UniProt A0A2K5U988 104-471)
Assay: cell-based or functional assay

Row | Binder | IC50, cyno fluorogenic peptide assay
18 | B1 | 108 nM
19 | B2 | 0.4 nM
20 | B3 | 7.1 nM
21 | B4 | 1.4 nM
22 | B5 | 0.7 nM
23 | B6 | 7 nM
24 | B7 | 7.2 nM
25 | B8 | 9.5 nM

Target: bovine MMP13 (bovine, UniProt O77656 104-471)
Assay: cell-based or functional assay

Row | Binder | IC50, bovine fluorogenic peptide assay
26 | B1 | 191 nM
27 | B2 | 1.5 nM
28 | B3 | 20.1 nM
29 | B4 | 3.1 nM
30 | B5 | 1.2 nM
31 | B6 | 16.1 nM
32 | B7 | 17.1 nM
33 | B8 | 27.7 nM

Target: T4, activated rat MMP13 (rat, UniProt P23097 99-466)
Assay: cell-based or functional assay

Row | Binder | IC50, rat fluorogenic peptide assay
34 | B1 | 20.2 nM
35 | B2 | 5.2 nM
36 | B3 | 80.6 nM
37 | B4 | 1.1 nM
38 | B5 | 0.2 nM
39 | B6 | 2.1 nM
40 | B7 | 3 nM
41 | B8 | 7.8 nM

Target: activated dog MMP13 (dog, UniProt P45452 104-471 (human entry))
Assay: cell-based or functional assay

Row | Binder | IC50, dog fluorogenic peptide assay
42 | B1 | 73.9 nM
43 | B2 | 4.4 nM
44 | B3 | 39.1 nM
45 | B4 | 1 nM
46 | B5 | 0.2 nM
47 | B6 | 5.5 nM
48 | B7 | 7 nM
49 | B8 | 17.3 nM

Target: T3, activated human MMP13
Assay: cell-based or functional assay
Remark: another data set of the same source

Row | Binder | potency, human fluorogenic peptide assay
50 | B9 | 0.953 nM

Target: T3, activated human MMP13
Assay: cell-based or functional assay
Remark: another data set of the same source

Row | Binder | IC50, human fluorogenic collagen assay
51 | B2 | 3.78 nM
52 | B4 | 8.32 nM
53 | B10 | 4.06 nM
54 | B11 | 3.55 nM
55 | B12 | 2.4 nM
56 | B13 | 6.5 nM
57 | B14 | 2.9 nM

Target: T4, activated rat MMP13
Assay: cell-based or functional assay
Remark: another data set of the same source

Row | Binder | IC50, (adapted) rat fluorogenic peptide assay
58 | B2 | 4.98 nM
59 | B4 | 2.88 nM
60 | B10 | 0.13 nM
61 | B11 | 0.16 nM
62 | B12 | 0.1 nM
63 | B13 | 0.11 nM
64 | B14 | 0.12 nM
65 | B15 | 1.12 nM
